Here are results for 14 variants from the supplement of paper PMC7125110.

First the molecules themselves.
B1: glmS ribozyme (parent)
chain: AUAAAAGCGCCAGAACUACAGAAAUGUAGUUGACGAGGAGGAGGUUUAUCGAAUUUUCGGCGGAUGCCUCCAAA

What all share (details): with glucosamine-6-phosphate
In data set [1] the parent is B1. Briefly: kcat; higher = faster cleavage; RNA array. The essentials:
(§1)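 A hybridised Cy3 probe tracked barcoded ribozyme variants, transcribed in situ by E. coli RNA polymerase on sequenced MiSeq chips, at 37 °C. The variants received 40 μM to 10 mM glucosamine-6-phosphate in HEPES/KCl/Mg(OAc)2 buffer. kobs came from decay fits and kcat and KM from weighted Michaelis–Menten fits.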

In data set [2] the parent is B1. In words: KM; higher = weaker cofactor use; RNA array. Summed up: as §1
Variants of B1 are the subject of data set [3]. Briefly: self-cleavage kobs at 40 uM GlcN6P; higher = faster cleavage; RNA array. The essentials: as §1
The variants in data set [4] derive from B1. Briefly: self-cleavage kobs at 160 uM GlcN6P; higher = faster cleavage; RNA array. Summed up:
as §1

Data set [5] covers variants of B1. Briefly: self-cleavage kobs at 640 uM GlcN6P; higher = faster cleavage; RNA array. The essentials:
as §1

Data set [6] covers variants of B1. Briefly: self-cleavage kobs at 2500 uM GlcN6P; higher = faster cleavage; RNA array. Summed up: as §1
The variants in data set [7] derive from B1. Briefly: self-cleavage kobs at 10000 uM GlcN6P; higher = faster cleavage; RNA array. Summed up: as §1

± gives the standard error. For part of these data: Variants at the floor of the assay were thinned out.

For A15G A53U, the kcat in data set [1] was found to be 0.0369 ± 0.0054 s⁻¹. In addition, the KM in data set [2] is 2500 ± 470 µM. Also, the “self-cleavage kobs at 40 uM GlcN6P” value in data set [3] was determined as 0.000575 ± 0.00011 s⁻¹. In addition, in data set [4], the “self-cleavage kobs at 160 uM GlcN6P” value came to 0.0027 ± 0.00073 s⁻¹. Moreover, the “self-cleavage kobs at 640 uM GlcN6P” value in data set [5] worked out at 0.00647 ± 0.002 s⁻¹. For the same variant, the “self-cleavage kobs at 2500 uM GlcN6P” value in data set [6] is 0.0176 ± 0.0065 s⁻¹. Besides, the “self-cleavage kobs at 10000 uM GlcN6P” value in data set [7] came to 0.0306 ± 0.0073 s⁻¹.

Consider A64G C67G, for which, in data set [1], the kcat was determined as 0.000471 ± 1.9e-05 s⁻¹. Also, in data set [2], the KM turned out to be 2090 ± 180 µM. Besides, the “self-cleavage kobs at 640 uM GlcN6P” value in data set [5] came out at 0.000111 ± 1.5e-05 s⁻¹. The “self-cleavage kobs at 2500 uM GlcN6P” value in data set [6] worked out at 0.000275 ± 6.1e-05 s⁻¹. In addition, in data set [7], the “self-cleavage kobs at 10000 uM GlcN6P” value was 0.000386 ± 3.6e-05 s⁻¹.

Regarding A12U U30A, the kcat in data set [1] is 0.0401 ± 0.009 s⁻¹. The KM in data set [2] was found to be 1980 ± 540 µM. In addition, the “self-cleavage kobs at 40 uM GlcN6P” value in data set [3] came out at 0.000782 ± 0.00011 s⁻¹. For the same variant, the “self-cleavage kobs at 640 uM GlcN6P” value in data set [5] was 0.0124 ± 0.0029 s⁻¹. The “self-cleavage kobs at 10000 uM GlcN6P” value in data set [7] came to 0.0321 ± 0.007 s⁻¹.

Turning to G32U U56G, in data set [1], the kcat turned out to be 0.00104 ± 0.00031 s⁻¹. For the same variant, in data set [2], the KM is 6410 ± 2800 µM. The “self-cleavage kobs at 160 uM GlcN6P” value in data set [4] worked out at 5.05e-05 ± 1.1e-05 s⁻¹. For the same variant, the “self-cleavage kobs at 640 uM GlcN6P” value in data set [5] stood at 8.33e-05 ± 1.2e-05 s⁻¹. In addition, in data set [6], the “self-cleavage kobs at 2500 uM GlcN6P” value came out at 0.000317 ± 5e-05 s⁻¹. In data set [7], the “self-cleavage kobs at 10000 uM GlcN6P” value was found to be 0.000633 ± 6.8e-05 s⁻¹.

As to C50A U69G, the kcat in data set [1] is 5.56e-05 ± 1.8e-05 s⁻¹. The “self-cleavage kobs at 40 uM GlcN6P” value in data set [3] was determined as 2.65e-05 ± 1.3e-05 s⁻¹. Besides, the “self-cleavage kobs at 160 uM GlcN6P” value in data set [4] worked out at 6.06e-05 ± 1.3e-05 s⁻¹. Also, the “self-cleavage kobs at 640 uM GlcN6P” value in data set [5] is 7.86e-05 ± 1.3e-05 s⁻¹. For the same variant, in data set [6], the “self-cleavage kobs at 2500 uM GlcN6P” value is 7.89e-05 ± 1.3e-05 s⁻¹.

For A39C U65C, the turnover number (kcat) in data set [1] turned out to be 0.000473 ± 8.7e-05 s⁻¹. Moreover, in data set [2], the KM worked out at 2250 ± 770 µM. Also, the “self-cleavage kobs at 640 uM GlcN6P” value in data set [5] is 0.000107 ± 2e-05 s⁻¹. Moreover, the “self-cleavage kobs at 2500 uM GlcN6P” value in data set [6] turned out to be 0.000311 ± 7.1e-05 s⁻¹. In addition, the “self-cleavage kobs at 10000 uM GlcN6P” value in data set [7] stood at 0.000367 ± 6.1e-05 s⁻¹.

On to G37A A39G, for which the kcat in data set [1] was found to be 0.00599 ± 0.00079 s⁻¹. Moreover, the Michaelis constant (KM) in data set [2] stood at 3900 ± 740 µM. The “self-cleavage kobs at 40 uM GlcN6P” value in data set [3] stood at 6.85e-05 ± 7.9e-06 s⁻¹. Besides, in data set [4], the “self-cleavage kobs at 160 uM GlcN6P” value came out at 0.000243 ± 4.5e-05 s⁻¹. For the same variant, in data set [5], the “self-cleavage kobs at 640 uM GlcN6P” value came to 0.00068 ± 0.00012 s⁻¹. Also, the “self-cleavage kobs at 2500 uM GlcN6P” value in data set [6] was determined as 0.00235 ± 0.0003 s⁻¹. Further, in data set [7], the “self-cleavage kobs at 10000 uM GlcN6P” value was 0.00437 ± 0.00039 s⁻¹.

As for U30C C67A, in data set [1], the kcat was determined as 8.57e-05 ± 7.5e-06 s⁻¹. Further, the “self-cleavage kobs at 640 uM GlcN6P” value in data set [5] came out at 7.21e-05 ± 1.3e-05 s⁻¹. Besides, the “self-cleavage kobs at 2500 uM GlcN6P” value in data set [6] stood at 6.84e-05 ± 1.1e-05 s⁻¹. Further, in data set [7], the “self-cleavage kobs at 10000 uM GlcN6P” value turned out to be 8.63e-05 ± 8.9e-06 s⁻¹.

As to G40U U56G, in data set [1], the kcat was 0.00147 ± 0.00055 s⁻¹. Moreover, the “self-cleavage kobs at 40 uM GlcN6P” value in data set [3] is 4.98e-05 ± 1.7e-05 s⁻¹. Moreover, the “self-cleavage kobs at 160 uM GlcN6P” value in data set [4] was 0.000107 ± 1.6e-05 s⁻¹. Moreover, the “self-cleavage kobs at 640 uM GlcN6P” value in data set [5] is 0.000431 ± 6e-05 s⁻¹. Besides, in data set [6], the “self-cleavage kobs at 2500 uM GlcN6P” value was found to be 0.00136 ± 0.00015 s⁻¹. Also, the “self-cleavage kobs at 10000 uM GlcN6P” value in data set [7] was found to be 0.000885 ± 0.00019 s⁻¹.

Regarding A15C U45G, in data set [1], the kcat worked out at 0.000779 ± 0.00013 s⁻¹. For the same variant, the KM in data set [2] was found to be 1570 ± 400 µM. In addition, the “self-cleavage kobs at 160 uM GlcN6P” value in data set [4] stood at 7.06e-05 ± 1.5e-05 s⁻¹. For the same variant, the “self-cleavage kobs at 640 uM GlcN6P” value in data set [5] worked out at 0.000218 ± 2.9e-05 s⁻¹. Moreover, the “self-cleavage kobs at 2500 uM GlcN6P” value in data set [6] was 0.000568 ± 8.2e-05 s⁻¹. Besides, the “self-cleavage kobs at 10000 uM GlcN6P” value in data set [7] worked out at 0.000562 ± 0.00014 s⁻¹.

Take A6C A12U: in data set [1], the kcat came to 0.000292 ± 1.8e-05 s⁻¹. Also, in data set [2], the Michaelis-Menten constant (KM) stood at 2560 ± 310 µM. Also, in data set [5], the “self-cleavage kobs at 640 uM GlcN6P” value came to 5.62e-05 ± 7.4e-06 s⁻¹. Further, the “self-cleavage kobs at 2500 uM GlcN6P” value in data set [6] was found to be 0.000157 ± 1.8e-05 s⁻¹. Further, the “self-cleavage kobs at 10000 uM GlcN6P” value in data set [7] is 0.000227 ± 2.1e-05 s⁻¹.

For G40C U55G, the kcat in data set [1] was found to be 0.000581 ± 0.00017 s⁻¹. Also, the “self-cleavage kobs at 160 uM GlcN6P” value in data set [4] was found to be 0.000102 ± 2.2e-05 s⁻¹. Also, the “self-cleavage kobs at 640 uM GlcN6P” value in data set [5] came to 0.000531 ± 0.0001 s⁻¹. The “self-cleavage kobs at 2500 uM GlcN6P” value in data set [6] worked out at 0.000712 ± 0.00015 s⁻¹. In data set [7], the “self-cleavage kobs at 10000 uM GlcN6P” value came out at 0.00045 ± 8.6e-05 s⁻¹.

On to C50U C58G, for which the kcat in data set [1] was determined as 1.24e-05 ± 3.2e-06 s⁻¹. Moreover, the “self-cleavage kobs at 40 uM GlcN6P” value in data set [3] is under 1e-05 s⁻¹.

As for G37A, in data set [1], the kcat stood at 0.00564 ± 0.001 s⁻¹. Moreover, the KM in data set [2] was found to be 3540 ± 830 µM. The “self-cleavage kobs at 40 uM GlcN6P” value in data set [3] turned out to be 7.38e-05 ± 1.4e-06 s⁻¹. Moreover, the “self-cleavage kobs at 160 uM GlcN6P” value in data set [4] amounted to 0.000198 ± 7.5e-06 s⁻¹. Moreover, the “self-cleavage kobs at 640 uM GlcN6P” value in data set [5] was found to be 0.000777 ± 1.7e-05 s⁻¹. The “self-cleavage kobs at 2500 uM GlcN6P” value in data set [6] is 0.00255 ± 7.6e-05 s⁻¹. The “self-cleavage kobs at 10000 uM GlcN6P” value in data set [7] worked out at 0.00419 ± 8.2e-05 s⁻¹.
